For assay [1], the target named is Endothelial nitric oxide synthase (Homo sapiens*) (UniProt P29474).
Assay [2] concerns the target purified human alpha globin (human) (UniProt P69905). Nature of the assay: BLI.

The term Kd denotes the concentration at which binding is half-saturated.

Sequence of Alpha globin (P69905 2-142): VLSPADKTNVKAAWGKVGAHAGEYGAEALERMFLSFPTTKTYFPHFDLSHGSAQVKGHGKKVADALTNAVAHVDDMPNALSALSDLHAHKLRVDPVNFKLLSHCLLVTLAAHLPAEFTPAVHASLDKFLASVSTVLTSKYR
Sequence of recombinant human eNOS oxidase domain (domain or fragment) (P29474 2-1203): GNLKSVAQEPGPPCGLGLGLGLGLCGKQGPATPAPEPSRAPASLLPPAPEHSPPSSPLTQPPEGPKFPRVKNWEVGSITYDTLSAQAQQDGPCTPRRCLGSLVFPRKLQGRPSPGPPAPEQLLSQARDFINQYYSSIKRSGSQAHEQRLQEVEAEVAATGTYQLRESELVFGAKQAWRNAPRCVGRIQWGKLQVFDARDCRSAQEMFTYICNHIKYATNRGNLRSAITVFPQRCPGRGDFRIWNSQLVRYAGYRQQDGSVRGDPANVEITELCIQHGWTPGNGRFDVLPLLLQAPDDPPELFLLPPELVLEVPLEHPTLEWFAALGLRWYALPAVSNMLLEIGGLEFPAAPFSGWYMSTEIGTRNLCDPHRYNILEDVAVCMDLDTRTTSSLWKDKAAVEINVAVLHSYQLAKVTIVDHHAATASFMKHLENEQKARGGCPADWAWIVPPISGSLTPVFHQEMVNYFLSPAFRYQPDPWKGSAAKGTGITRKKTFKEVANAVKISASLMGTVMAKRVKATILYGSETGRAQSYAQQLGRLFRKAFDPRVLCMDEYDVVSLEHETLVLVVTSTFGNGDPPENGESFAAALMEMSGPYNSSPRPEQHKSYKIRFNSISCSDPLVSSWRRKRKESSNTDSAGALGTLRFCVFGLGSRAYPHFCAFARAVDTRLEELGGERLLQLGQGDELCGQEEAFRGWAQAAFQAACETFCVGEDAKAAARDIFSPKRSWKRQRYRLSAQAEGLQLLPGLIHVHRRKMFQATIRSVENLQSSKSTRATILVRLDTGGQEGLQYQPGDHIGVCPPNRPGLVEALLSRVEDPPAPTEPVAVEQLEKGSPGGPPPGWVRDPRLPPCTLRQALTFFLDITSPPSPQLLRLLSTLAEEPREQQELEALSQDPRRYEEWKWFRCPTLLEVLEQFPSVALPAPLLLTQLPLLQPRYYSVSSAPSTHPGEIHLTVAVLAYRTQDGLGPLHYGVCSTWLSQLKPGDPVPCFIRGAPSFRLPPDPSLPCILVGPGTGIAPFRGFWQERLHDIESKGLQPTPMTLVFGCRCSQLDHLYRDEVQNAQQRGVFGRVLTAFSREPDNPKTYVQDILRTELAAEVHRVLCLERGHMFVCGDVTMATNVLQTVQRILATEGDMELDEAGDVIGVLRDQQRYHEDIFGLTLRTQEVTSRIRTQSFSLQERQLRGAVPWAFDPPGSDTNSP
Sequence of purified human alpha globin (human) (P69905 whole entry): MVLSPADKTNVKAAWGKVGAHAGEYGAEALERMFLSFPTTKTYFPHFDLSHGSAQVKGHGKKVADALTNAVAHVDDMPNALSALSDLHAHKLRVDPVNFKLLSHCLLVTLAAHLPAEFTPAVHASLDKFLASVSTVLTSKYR
Sequence of Endothelial nitric oxide synthase (Homo sapiens*) (P29474 66-492): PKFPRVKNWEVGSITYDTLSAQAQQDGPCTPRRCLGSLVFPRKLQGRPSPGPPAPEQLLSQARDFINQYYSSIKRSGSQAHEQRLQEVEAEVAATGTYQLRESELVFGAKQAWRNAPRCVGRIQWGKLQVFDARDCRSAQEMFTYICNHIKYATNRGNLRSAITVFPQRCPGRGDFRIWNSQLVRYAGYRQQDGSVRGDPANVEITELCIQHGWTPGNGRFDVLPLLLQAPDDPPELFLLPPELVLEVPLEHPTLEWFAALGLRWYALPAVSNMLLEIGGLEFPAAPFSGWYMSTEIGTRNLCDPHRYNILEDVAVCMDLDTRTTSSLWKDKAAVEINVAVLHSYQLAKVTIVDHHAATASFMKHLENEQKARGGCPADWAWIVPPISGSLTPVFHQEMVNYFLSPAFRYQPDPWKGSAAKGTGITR

As to Alpha globin (from UniProt P69905), the dissociation constant Kd in assay [1] was 1300 nM.
As to “recombinant human eNOS oxidase domain (domain or fragment)”, in assay [2], the Kd was found to be 1310 nM.

These data come from paper doi:10.1101/2021.04.06.21255004.
